Kd data for three variants are collected here from PMC7588443 (Nature Communications, 2020).

B1: unnamed (parent)
chain 1: ECPDRWRAEIDLGLPPGVQVGDLLRNEQTMGSLRQVYLLAVQANSITDHLKRFDAVRVPESCRGVVEAQVAKLEAVRSVIWNTMISLAVSGIEMDENGLKALLDKQAGDSLALMEMEKVATALKMD
chain 2: MQKVSLRVTPRLVLEVNRHNAICVATNVPEFYNARGDLNIRDLRAHVKARMISSQFCGYVLVSLLDSEDQVDHLNIFPHVFSERMILYKPNNVNLMEMCALLSMIENAKSPSIGLCREVLGRLTLLHSKCNNLDSLFLYNGARTLLSTLVKYHDLEEGAATPGPWNEGLSLFKLHKELKRAPSEARDLMQSLFLTSGKMGCLARSPKDYCADLNKEEDANSGFTFNLFYQDSLLTKHFQCQTVLQTLRRKCLGSDTVSKIIP

The variants in the first assay derive from B1. In words: BLI. To be noted: with partner chain of the complex shown; 10 μg ml−1 His-tagged BBRF2Δ; BSRF1Δ(M63D) at 500, 250, 125, 62.5, 31.3, 15.6 nM.
Consider chain 1 M30D, for which the Kd was found to be 126 nM.

Staying with this assay, now noted: with partner chain of the complex shown; 10 μg ml−1 His-tagged BBRF2Δ; BSRF1Δ(N59K) at 500, 250, 125, 62.5, 31.3 nM.
With chain 1 N26K, the equilibrium dissociation constant (Kd) came out at 59.9 nM.

Still in this assay, the particulars now being: with partner chain of the complex shown; 10 μg ml−1 His-tagged BBRF2Δ(F209K); BSRF1Δ at 500, 250, 125, 62.5, 31.3, 15.6 nM.
As to chain 2 F193K, the dissociation constant Kd turned out to be 53.9 nM.

A word on the Kd: it is the free concentration of one partner at which half of the binding sites on the other are occupied at equilibrium, for simple one-to-one binding.
